Experimental data as given in patent publication EP1160320A1 (INSTITUT NATIONAL DE LA SANTE ET DE LA RECHERCHE MEDICALE …, dated 2001).

Biological target: T1, hTAFII80δ (human, UniProt P49848 1-677)
T1 construct: Endogenous protein immunoprecipitated from HeLa extracts; also called hTAFII80 delta; δ isoform of hTAFII80
Test: co-immunoprecipitation of endogenous hTAFII80δ complexes from HeLa cells, immunoblot

T1 sequence (P49848 other isoform, or with tags, fused parts or gaps mutant limits assumed): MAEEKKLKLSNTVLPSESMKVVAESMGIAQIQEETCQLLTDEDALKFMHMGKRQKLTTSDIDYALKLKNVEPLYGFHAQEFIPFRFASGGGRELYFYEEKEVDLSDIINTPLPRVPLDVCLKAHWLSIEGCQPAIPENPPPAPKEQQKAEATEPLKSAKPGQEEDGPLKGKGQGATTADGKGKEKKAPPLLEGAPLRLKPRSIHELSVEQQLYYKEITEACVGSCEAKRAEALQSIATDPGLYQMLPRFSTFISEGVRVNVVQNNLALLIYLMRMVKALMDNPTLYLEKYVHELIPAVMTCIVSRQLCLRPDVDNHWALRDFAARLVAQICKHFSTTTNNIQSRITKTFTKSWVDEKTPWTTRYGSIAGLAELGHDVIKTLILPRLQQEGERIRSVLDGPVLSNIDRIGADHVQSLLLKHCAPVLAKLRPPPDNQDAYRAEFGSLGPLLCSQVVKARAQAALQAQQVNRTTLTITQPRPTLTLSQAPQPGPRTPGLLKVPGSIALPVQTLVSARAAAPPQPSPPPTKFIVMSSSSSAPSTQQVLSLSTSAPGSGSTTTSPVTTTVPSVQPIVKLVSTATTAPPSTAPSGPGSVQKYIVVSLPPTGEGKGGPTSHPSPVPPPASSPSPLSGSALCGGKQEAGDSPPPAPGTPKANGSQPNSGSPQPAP

B1: hTAFII31 (other, human, UniProt Q16594 1-264, looked up)
chain: MESGKTASPKSMPKDAQMMAQILKDMGITEYEPRVINQMLEFAFRYVTTILDDAKIYSSHAKKATVDADDVRLAIQCRADQSFTSPPPRDFLLDIARQRNQTPLPLIKPYSGPRLPPDRYCLTAPNYRLKSLQKKASTSAGRITVPRLSVGSVTSRPSTPTLGTPTPQTMSVSTKVGTPMSLTGQRFTVQMPTSQSPAVKASIPATSAVQNVLINPSLIGSKNILITTNMMSSQNTANESSNALKRKREDDDDDDDDDDDYDNL
notes: Baculovirus-produced in SF9 extracts for the pull-down; endogenous in HeLa cells for the co-immunoprecipitation; No tag is stated; also called recombinant hTAFII31; histone H3-like hTAFII31
binding result: no binding
